Experimental findings from patent publication US20230399412A1 (NANJING IASO BIOTECHNOLOGY, published 2023) are described below.

For test [1], the target named is T1, CD70 on the cell surface of CD70-positive cell lines (UniProt P32970 1-193, limits assumed).
T1 construct: whole, on cells; One molecule for all cell lines; the cell line is named under assay; also called natural CD70 on the cell surface; CD70 antigen on Raji, U266, THP-1, RS4:11, REH, Molm-13 cells
T1 sequence (looked up): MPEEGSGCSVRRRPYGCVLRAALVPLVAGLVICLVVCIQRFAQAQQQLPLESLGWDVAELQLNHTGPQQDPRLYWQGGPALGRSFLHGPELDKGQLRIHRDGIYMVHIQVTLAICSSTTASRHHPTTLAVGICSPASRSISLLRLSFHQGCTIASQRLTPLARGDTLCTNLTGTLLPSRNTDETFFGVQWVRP
The test can be described thus: phage FACS on CD70-positive cell lines (Raji, U266).

For test [2], the target named is T2, Human CD70/CD27 Ligand Protein-his-Trimer (Kactus, CD7-HM271-1) (human, UniProt P32970 39-193).
T2 construct: Bought reagent, named a trimer; also called Kactus-CD70 Trimer-his; Kactus-CD70Trimer-his; not shown: His tag (and any trimerisation part)
T2 sequence (looked up): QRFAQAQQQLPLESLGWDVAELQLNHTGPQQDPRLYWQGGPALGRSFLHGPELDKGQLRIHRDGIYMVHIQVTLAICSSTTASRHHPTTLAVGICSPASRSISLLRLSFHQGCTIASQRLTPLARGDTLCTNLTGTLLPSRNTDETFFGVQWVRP
The test can be described thus: phage ELISA. Background: An ELISA detects its analyte on a solid surface through an enzyme-linked reagent.

Test [3] concerns the target T3, Biotinylated Human CD27 Ligand, Avitag, human Fc Tag (ACRO biosystem, TN7-H82F4) (human, UniProt P32970 39-193, biotinylated (Avitag)).
T3 construct: Bought reagent; also called Acro-CD70-Fc-Bio; not shown: human Fc tag and Avitag
T3 sequence (looked up): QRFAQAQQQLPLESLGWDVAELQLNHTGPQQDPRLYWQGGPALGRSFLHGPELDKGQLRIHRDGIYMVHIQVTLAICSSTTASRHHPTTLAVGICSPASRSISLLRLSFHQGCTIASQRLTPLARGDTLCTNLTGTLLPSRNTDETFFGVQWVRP
Kind of test: phage ELISA.

For test [4], the target named is T4, Biotinylated Human CD27 Ligand, HIS, Avitag (ACRO biosystem, CDL-H82Q9) (human, UniProt P32970 39-193, biotinylated (Avitag)).
T4 construct: Bought reagent; also called Acro-CD70-his-Bio; CD70-his-Bio; not shown: His tag and Avitag
T4 sequence (looked up): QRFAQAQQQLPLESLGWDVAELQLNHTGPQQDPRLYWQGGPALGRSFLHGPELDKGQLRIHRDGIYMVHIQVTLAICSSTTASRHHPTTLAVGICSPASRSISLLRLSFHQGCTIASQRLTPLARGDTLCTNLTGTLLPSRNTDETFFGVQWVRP
Kind of test: phage ELISA.

In test [5] the target is T5, Human CD70/CD27 Ligand Protein-his-Trimer-Biotin (Kactus, CD7-HM271) (human, UniProt P32970 39-193, biotinylated).
T5 construct: Bought reagent, named a trimer; also called Kactus-CD70Trimer-his-Bio; Katcus-CD70 Trimer-His-Bio; not shown: His tag (and any trimerisation part)
T5 sequence (looked up): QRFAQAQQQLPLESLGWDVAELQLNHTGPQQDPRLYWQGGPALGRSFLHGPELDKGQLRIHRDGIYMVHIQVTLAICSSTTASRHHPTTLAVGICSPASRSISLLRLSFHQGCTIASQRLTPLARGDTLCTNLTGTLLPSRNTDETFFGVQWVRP
The test can be described thus: phage ELISA.

For test [6], the target named is T6, Biotinylated Human Siglec-2/CD22 Protein, human Fc, Avitag (ACRO biosystem, SI2-H82F8) (human, UniProt P20273 20-687, biotinylated (Avitag)).
T6 construct: Irrelevant control antigen; also called Acro-CD22-Bio; CD22-Fc-Bio; not shown: human Fc and Avitag
T6 sequence (looked up): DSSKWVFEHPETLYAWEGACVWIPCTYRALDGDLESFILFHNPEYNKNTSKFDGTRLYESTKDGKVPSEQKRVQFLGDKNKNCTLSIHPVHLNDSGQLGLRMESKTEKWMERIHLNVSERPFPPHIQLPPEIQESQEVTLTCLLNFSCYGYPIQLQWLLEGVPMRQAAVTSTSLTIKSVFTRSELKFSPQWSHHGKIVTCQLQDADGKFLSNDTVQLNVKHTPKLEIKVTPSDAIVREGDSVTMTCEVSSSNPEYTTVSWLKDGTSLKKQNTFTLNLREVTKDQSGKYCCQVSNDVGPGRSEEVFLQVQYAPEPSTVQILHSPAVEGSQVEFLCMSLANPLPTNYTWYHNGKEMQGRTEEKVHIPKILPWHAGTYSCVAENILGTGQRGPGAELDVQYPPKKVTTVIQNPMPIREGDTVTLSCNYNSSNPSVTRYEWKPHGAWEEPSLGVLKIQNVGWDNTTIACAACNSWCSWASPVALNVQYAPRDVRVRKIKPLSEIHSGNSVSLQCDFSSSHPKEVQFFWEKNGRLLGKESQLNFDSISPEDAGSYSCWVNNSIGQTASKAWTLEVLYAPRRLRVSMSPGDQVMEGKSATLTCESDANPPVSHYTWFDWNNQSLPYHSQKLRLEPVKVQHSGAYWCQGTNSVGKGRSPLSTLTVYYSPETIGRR
The test can be described thus: phage ELISA.

In test [7] the target is T7, Human CD70/CD27 Ligand Protein (human FC Tag)-Biotin (Kactus, CD7-HM270) (human, UniProt P32970 39-193, biotinylated).
T7 construct: Bought reagent; also called Kactus-CD70-Fc-Bio; Katcus-CD70-Fc-Bio; not shown: human Fc tag
T7 sequence (looked up): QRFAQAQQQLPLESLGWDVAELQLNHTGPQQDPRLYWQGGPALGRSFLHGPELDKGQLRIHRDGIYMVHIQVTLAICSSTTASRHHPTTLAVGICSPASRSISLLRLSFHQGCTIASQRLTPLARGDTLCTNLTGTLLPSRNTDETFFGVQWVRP
The test can be described thus: phage ELISA.

B1: phage monoclonal antibody clone #9 (VHH)
VHH: EVQLLESGGGLVQPGGSLRLSCAASGFTFNIDAMGWVRQAPGKGLEWVSSISSSGGTTYYADSVKGRFTISRDNSKNTLYLQMNSLRAEDTAVYYCARSRYSVPDGRGSYDVWGQGTLVTVSS
notes: single-domain antibody (heavy chain variable region alone); also called VHH 09; 09 antibody
For B1, the binding result was “binds” in test [1]; “binds” in test [2]; “binds” in test [3]; “binds” in test [4]; “binds” in test [5]; “no binding” in test [6]. In addition, in test [7], the binding result is listed as “binds”.

B2: phage monoclonal antibody clone #13 (VHH)
VHH: EVQLLESGGGLVQPGGSLRLSCAASGFTFSSEAMGWVRQAPGKGLEWVSSINGSGRNTYYADSVKGRFTISRDNSKNTLYLQMNSLRAEDTAVYYCARKHGEYYDSGYDVWGQGTLVTVSS
notes: single-domain antibody (heavy chain variable region alone); also called VHH13; VHH 13
As for B2, the binding result in test [6] is recorded as “no binding”.

B3: phage monoclonal antibody clone #20 (VHH)
VHH: EVQLLESGGGLVQPGGSLRLSCAASGFTFSSYAMGWVRQAPGKGLEWVSSISGYGEETYYADSVKGRFTISRDNSKNTLYLQMNSLRAEDTAVYYCARFYYRYWKEFDYWGQGTLVTVSS
notes: single-domain antibody (heavy chain variable region alone); also called VHH20; VHH 20
B3: the binding result in test [1] was “binds”; in test [2], “binds”; in test [3], “binds”; in test [4] it was “binds”; in test [5] it was “binds”; in test [6], “no binding”. In addition, the binding result in test [7] is “binds”.

B4: phage monoclonal antibody clone #21 (VHH)
VHH: EVQLLESGGGLVQPGGSLRLSCAASGFTFSNYAMGWVRQAPGKGLEWVSSITGLGGNMYYADSVKGRFTISRDNSKNTLYLQMNSLRAEDTAVYYCARMYYSQGVNNYSYPSTDIWGQGTLVTVSS
notes: single-domain antibody (heavy chain variable region alone); also called VHH21; VHH 21
For B4, the binding result in test [1] is “binds”; in test [2], “binds”; in test [3] it was “binds”; in test [4], “binds”; in test [5] it was “binds”; in test [6], “no binding”. Moreover, in test [7], the binding result is “binds”.

B5: phage monoclonal antibody clone #6 (scFv)
scFv: QAVLTQPPSASATPGQRVSISCSGSSSNIGRNTVNWYQHLPGTAPKLLIYSNDHRPSGVPDRFSGSQSGTSASLAISGLQSEDEADYYCASWDDSLTGWVFGGGTKVTVLGSRGGGGSGGGGSGGGGSLEMAQVQLVQSGAEVKKAGSSLKVSCKANGGSFTNYLINWVRQAPGQGLEWMGGIIPVYGTPIYSQKFQGRVTFTADEPTRTAYMELSSLTFEDTAVYYCVREDEGYGDLYLAYWGQGTLVTVSS
notes: also called scFv 06; Scfv06
B5: the binding result was “binds” in test [1]; “binds” in test [2]; “binds” in test [3]; “binds” in test [4]; “binds” in test [5]; “no binding” in test [6]. The binding result in test [7] is given as “binds”.
